Where no end group is shown, it is not given here.
T1: human GRF receptor (human, UniProt Q02643 23-423)
T1 sequence (looked up): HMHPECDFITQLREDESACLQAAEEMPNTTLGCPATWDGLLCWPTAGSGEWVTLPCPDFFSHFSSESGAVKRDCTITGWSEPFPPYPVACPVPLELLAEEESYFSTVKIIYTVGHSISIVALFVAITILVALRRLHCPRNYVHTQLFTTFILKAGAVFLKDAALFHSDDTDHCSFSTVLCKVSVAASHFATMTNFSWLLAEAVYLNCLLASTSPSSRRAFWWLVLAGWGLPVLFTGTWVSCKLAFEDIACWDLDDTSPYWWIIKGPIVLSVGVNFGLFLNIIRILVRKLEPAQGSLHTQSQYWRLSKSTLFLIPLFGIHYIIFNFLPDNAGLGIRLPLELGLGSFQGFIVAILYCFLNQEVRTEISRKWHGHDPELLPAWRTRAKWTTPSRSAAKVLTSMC


These binders were tested against T1, human GRF receptor (assay: cell-based or functional assay).

Row | Binder | EC50 as assessed by alkaline phosphatase (AP) induction
1 | Ac-YADAIFTDSYRKVLAQLSARKLLQDILSR-NH2 [Ac-YADAIFTDSYRKVLAQLSARKLLQDILSR-NH2 (SEQ ID NO: 43)] | 0.25 nM
2 | YADAIFTDSYRKVLAQLKARQDILARAAR (HELM PEPTIDE1{[CC/C=C/CC(=O)[*:2]].Y.A.D.A.I.F.T.D.S.Y.R.K.V.L.A.Q.L.K.A.R.Q.D.I.L.A.R.A.A.R.[am]}$$$$V2.0; SMILES CC/C=C/CC(=O)N[C@@H](Cc1ccc(O)cc1)C(=O)N[C@@H](C)C(=O)N[C@@H](CC(=O)O)C(=O)N[C@@H](C)C(=O)N[C@H](C(=O)N[C@@H](Cc1ccccc1)C(=O)N[C@H](C(=O)N[C@@H](CC(=O)O)C(=O)N[C@@H](CO)C(=O)N[C@@H](Cc1ccc(O)cc1)C(=O)N[C@@H](CCCNC(=N)N)C(=O)N[C@@H](CCCCN)C(=O)N[C@H](C(=O)N[C@@H](CC(C)C)C(=O)N[C@@H](C)C(=O)N[C@@H](CCC(N)=O)C(=O)N[C@@H](CC(C)C)C(=O)N[C@@H](CCCCN)C(=O)N[C@@H](C)C(=O)N[C@@H](CCCNC(=N)N)C(=O)N[C@@H](CCC(N)=O)C(=O)N[C@@H](CC(=O)O)C(=O)N[C@H](C(=O)N[C@@H](CC(C)C)C(=O)N[C@@H](C)C(=O)N[C@@H](CCCNC(=N)N)C(=O)N[C@@H](C)C(=O)N[C@@H](C)C(=O)N[C@@H](CCCNC(=N)N)C(N)=O)[C@@H](C)CC)C(C)C)[C@@H](C)O)[C@@H](C)CC) [Trans-3-hexenoyl-YADAIFTDSYRKVLAQLKARQDILARAAR-NH2 (SEQ ID NO: 26)] | 0.13 nM
3 | YADAIFTDSYRKVLAQLKARQDLLARAARAAR (HELM PEPTIDE1{[CC/C=C/CC(=O)[*:2]].Y.A.D.A.I.F.T.D.S.Y.R.K.V.L.A.Q.L.K.A.R.Q.D.L.L.A.R.A.A.R.A.A.R.[am]}$$$$V2.0; SMILES CC/C=C/CC(=O)N[C@@H](Cc1ccc(O)cc1)C(=O)N[C@@H](C)C(=O)N[C@@H](CC(=O)O)C(=O)N[C@@H](C)C(=O)N[C@H](C(=O)N[C@@H](Cc1ccccc1)C(=O)N[C@H](C(=O)N[C@@H](CC(=O)O)C(=O)N[C@@H](CO)C(=O)N[C@@H](Cc1ccc(O)cc1)C(=O)N[C@@H](CCCNC(=N)N)C(=O)N[C@@H](CCCCN)C(=O)N[C@H](C(=O)N[C@@H](CC(C)C)C(=O)N[C@@H](C)C(=O)N[C@@H](CCC(N)=O)C(=O)N[C@@H](CC(C)C)C(=O)N[C@@H](CCCCN)C(=O)N[C@@H](C)C(=O)N[C@@H](CCCNC(=N)N)C(=O)N[C@@H](CCC(N)=O)C(=O)N[C@@H](CC(=O)O)C(=O)N[C@@H](CC(C)C)C(=O)N[C@@H](CC(C)C)C(=O)N[C@@H](C)C(=O)N[C@@H](CCCNC(=N)N)C(=O)N[C@@H](C)C(=O)N[C@@H](C)C(=O)N[C@@H](CCCNC(=N)N)C(=O)N[C@@H](C)C(=O)N[C@@H](C)C(=O)N[C@@H](CCCNC(=N)N)C(N)=O)C(C)C)[C@@H](C)O)[C@@H](C)CC) [Trans-3-hexenoyl-YADAIFTDSYRKVLAQLKARQDLLARAARAAR-NH2 (SEQ ID NO: 32)] | 0.11 nM
4 | YADAIFTDSYRKVLAQLKARQDILARAARAAR (HELM PEPTIDE1{[CC/C=C/CC(=O)[*:2]].Y.A.D.A.I.F.T.D.S.Y.R.K.V.L.A.Q.L.K.A.R.Q.D.I.L.A.R.A.A.R.A.A.R.[am]}$$$$V2.0; SMILES CC/C=C/CC(=O)N[C@@H](Cc1ccc(O)cc1)C(=O)N[C@@H](C)C(=O)N[C@@H](CC(=O)O)C(=O)N[C@@H](C)C(=O)N[C@H](C(=O)N[C@@H](Cc1ccccc1)C(=O)N[C@H](C(=O)N[C@@H](CC(=O)O)C(=O)N[C@@H](CO)C(=O)N[C@@H](Cc1ccc(O)cc1)C(=O)N[C@@H](CCCNC(=N)N)C(=O)N[C@@H](CCCCN)C(=O)N[C@H](C(=O)N[C@@H](CC(C)C)C(=O)N[C@@H](C)C(=O)N[C@@H](CCC(N)=O)C(=O)N[C@@H](CC(C)C)C(=O)N[C@@H](CCCCN)C(=O)N[C@@H](C)C(=O)N[C@@H](CCCNC(=N)N)C(=O)N[C@@H](CCC(N)=O)C(=O)N[C@@H](CC(=O)O)C(=O)N[C@H](C(=O)N[C@@H](CC(C)C)C(=O)N[C@@H](C)C(=O)N[C@@H](CCCNC(=N)N)C(=O)N[C@@H](C)C(=O)N[C@@H](C)C(=O)N[C@@H](CCCNC(=N)N)C(=O)N[C@@H](C)C(=O)N[C@@H](C)C(=O)N[C@@H](CCCNC(=N)N)C(N)=O)[C@@H](C)CC)C(C)C)[C@@H](C)O)[C@@H](C)CC) [Trans-3-hexenoyl-YADAIFTDSYRKVLAQLKARQDILARAARAAR-NH2 (SEQ ID NO: 31)] | 0.1 nM

Now from value to binder:

Row | EC50 as assessed by alkaline phosphatase (AP) induction | Binder
5 | 0.25 nM | YSDAIFTDSYRKVLAQLKARQDILARAARAAR-NH2 [YSDAIFTDSYRKVLAQLKARQDILARAARAAR-NH2 (SEQ ID NO: 33)]
6 | 0.19 nM | YADAIFTDSYRKVLAQLSARQDILARAARAAR (HELM PEPTIDE1{[CC/C=C/CC(=O)[*:2]].Y.A.D.A.I.F.T.D.S.Y.R.K.V.L.A.Q.L.S.A.R.Q.D.I.L.A.R.A.A.R.A.A.R.[am]}$$$$V2.0; SMILES CC/C=C/CC(=O)N[C@@H](Cc1ccc(O)cc1)C(=O)N[C@@H](C)C(=O)N[C@@H](CC(=O)O)C(=O)N[C@@H](C)C(=O)N[C@H](C(=O)N[C@@H](Cc1ccccc1)C(=O)N[C@H](C(=O)N[C@@H](CC(=O)O)C(=O)N[C@@H](CO)C(=O)N[C@@H](Cc1ccc(O)cc1)C(=O)N[C@@H](CCCNC(=N)N)C(=O)N[C@@H](CCCCN)C(=O)N[C@H](C(=O)N[C@@H](CC(C)C)C(=O)N[C@@H](C)C(=O)N[C@@H](CCC(N)=O)C(=O)N[C@@H](CC(C)C)C(=O)N[C@@H](CO)C(=O)N[C@@H](C)C(=O)N[C@@H](CCCNC(=N)N)C(=O)N[C@@H](CCC(N)=O)C(=O)N[C@@H](CC(=O)O)C(=O)N[C@H](C(=O)N[C@@H](CC(C)C)C(=O)N[C@@H](C)C(=O)N[C@@H](CCCNC(=N)N)C(=O)N[C@@H](C)C(=O)N[C@@H](C)C(=O)N[C@@H](CCCNC(=N)N)C(=O)N[C@@H](C)C(=O)N[C@@H](C)C(=O)N[C@@H](CCCNC(=N)N)C(N)=O)[C@@H](C)CC)C(C)C)[C@@H](C)O)[C@@H](C)CC) [Trans-3-hexenoyl-YADAIFTDSYRKVLAQLSARQDILARAARAAR-NH2 (SEQ ID NO: 27)]
7 | 0.11 nM | YXDAIFTDSYRKVLAQLKARQDILARAARAAR (HELM PEPTIDE1{Y.[dA].D.A.I.F.T.D.S.Y.R.K.V.L.A.Q.L.K.A.R.Q.D.I.L.A.R.A.A.R.A.A.R.[am]}$$$$V2.0; N-terminus assumed; SMILES CC[C@H](C)[C@H](NC(=O)[C@H](C)NC(=O)[C@H](CC(=O)O)NC(=O)[C@@H](C)NC(=O)[C@@H](N)Cc1ccc(O)cc1)C(=O)N[C@@H](Cc1ccccc1)C(=O)N[C@H](C(=O)N[C@@H](CC(=O)O)C(=O)N[C@@H](CO)C(=O)N[C@@H](Cc1ccc(O)cc1)C(=O)N[C@@H](CCCNC(=N)N)C(=O)N[C@@H](CCCCN)C(=O)N[C@H](C(=O)N[C@@H](CC(C)C)C(=O)N[C@@H](C)C(=O)N[C@@H](CCC(N)=O)C(=O)N[C@@H](CC(C)C)C(=O)N[C@@H](CCCCN)C(=O)N[C@@H](C)C(=O)N[C@@H](CCCNC(=N)N)C(=O)N[C@@H](CCC(N)=O)C(=O)N[C@@H](CC(=O)O)C(=O)N[C@H](C(=O)N[C@@H](CC(C)C)C(=O)N[C@@H](C)C(=O)N[C@@H](CCCNC(=N)N)C(=O)N[C@@H](C)C(=O)N[C@@H](C)C(=O)N[C@@H](CCCNC(=N)N)C(=O)N[C@@H](C)C(=O)N[C@@H](C)C(=O)N[C@@H](CCCNC(=N)N)C(N)=O)[C@@H](C)CC)C(C)C)[C@@H](C)O) [Y-a-DAIFTDSYRKVLAQLKARQDILARAARAAR-NH2 (SEQ ID NO: 28)]
8 | 0.18 nM | YXDAIFTDSYRKVLAQLKARQDLLARAARAAR (HELM PEPTIDE1{Y.[dA].D.A.I.F.T.D.S.Y.R.K.V.L.A.Q.L.K.A.R.Q.D.L.L.A.R.A.A.R.A.A.R.[am]}$$$$V2.0; N-terminus assumed; SMILES CC[C@H](C)[C@H](NC(=O)[C@H](C)NC(=O)[C@H](CC(=O)O)NC(=O)[C@@H](C)NC(=O)[C@@H](N)Cc1ccc(O)cc1)C(=O)N[C@@H](Cc1ccccc1)C(=O)N[C@H](C(=O)N[C@@H](CC(=O)O)C(=O)N[C@@H](CO)C(=O)N[C@@H](Cc1ccc(O)cc1)C(=O)N[C@@H](CCCNC(=N)N)C(=O)N[C@@H](CCCCN)C(=O)N[C@H](C(=O)N[C@@H](CC(C)C)C(=O)N[C@@H](C)C(=O)N[C@@H](CCC(N)=O)C(=O)N[C@@H](CC(C)C)C(=O)N[C@@H](CCCCN)C(=O)N[C@@H](C)C(=O)N[C@@H](CCCNC(=N)N)C(=O)N[C@@H](CCC(N)=O)C(=O)N[C@@H](CC(=O)O)C(=O)N[C@@H](CC(C)C)C(=O)N[C@@H](CC(C)C)C(=O)N[C@@H](C)C(=O)N[C@@H](CCCNC(=N)N)C(=O)N[C@@H](C)C(=O)N[C@@H](C)C(=O)N[C@@H](CCCNC(=N)N)C(=O)N[C@@H](C)C(=O)N[C@@H](C)C(=O)N[C@@H](CCCNC(=N)N)C(N)=O)C(C)C)[C@@H](C)O) [Y-a-DAIFTDSYRKVLAQLKARQDLLARAARAAR-NH2 (SEQ ID NO: 30)]
9 | 0.08 nM | YXDAIFTDSYRKVLAQLKLRQDILARAARAAR (HELM PEPTIDE1{Y.[dA].D.A.I.F.T.D.S.Y.R.K.V.L.A.Q.L.K.L.R.Q.D.I.L.A.R.A.A.R.A.A.R.[am]}$$$$V2.0; N-terminus assumed; SMILES CC[C@H](C)[C@H](NC(=O)[C@H](C)NC(=O)[C@H](CC(=O)O)NC(=O)[C@@H](C)NC(=O)[C@@H](N)Cc1ccc(O)cc1)C(=O)N[C@@H](Cc1ccccc1)C(=O)N[C@H](C(=O)N[C@@H](CC(=O)O)C(=O)N[C@@H](CO)C(=O)N[C@@H](Cc1ccc(O)cc1)C(=O)N[C@@H](CCCNC(=N)N)C(=O)N[C@@H](CCCCN)C(=O)N[C@H](C(=O)N[C@@H](CC(C)C)C(=O)N[C@@H](C)C(=O)N[C@@H](CCC(N)=O)C(=O)N[C@@H](CC(C)C)C(=O)N[C@@H](CCCCN)C(=O)N[C@@H](CC(C)C)C(=O)N[C@@H](CCCNC(=N)N)C(=O)N[C@@H](CCC(N)=O)C(=O)N[C@@H](CC(=O)O)C(=O)N[C@H](C(=O)N[C@@H](CC(C)C)C(=O)N[C@@H](C)C(=O)N[C@@H](CCCNC(=N)N)C(=O)N[C@@H](C)C(=O)N[C@@H](C)C(=O)N[C@@H](CCCNC(=N)N)C(=O)N[C@@H](C)C(=O)N[C@@H](C)C(=O)N[C@@H](CCCNC(=N)N)C(N)=O)[C@@H](C)CC)C(C)C)[C@@H](C)O) [Y-a-DAIFTDSYRKVLAQLKLRQDILARAARAAR-NH2 (SEQ ID NO: 29)]
